From patent publication US20220251157A1 (MAYO FOUNDATION FOR MEDICAL EDUCATION AND RESEARCH, published 2022)
Positions of bridges follow the written chain, without caps; N, C: chain ends. No end group written: not given here.

Legend:
[1] = target: T1, 12p4 (disulfide 1-9; also: displayed on phage); assay: phage display panning (Ph.D.-C7C) on immobilized antibody, bound phage eluted; 1x clone
T1 construct: one clone only
T1 peptide: CARNSTPPC
Source text: (§1) A phage display system (Ph.D.-C7C Peptide Library Kit, New England Biolabs) was used to select 7-mer peptides in a cysteine loop for either hIgM12 or hIgM22. Briefly, a random peptide bacteriophage library was panned against immobilized antibody. Unbound bacteriophage was washed away, and bound bacteriophage was eluted, regrown and re-panned against the antibody. Multiple (three to seven) rounds of panning led to development of a peptide consensus sequence for each antibody. Two similar consensus sequences were identified for hIgM22, while one consensus sequence was identified for hIgM12 (Table 1).

[2] = target: T2, 12p9a (disulfide 1-9; also: displayed on phage); assay: phage display panning (Ph.D.-C7C) on immobilized antibody, bound phage eluted; 11x clones
T2 peptide: CHQTEKLTC
Source text: as §1

B1: B7-DC XAb (antibody)
light: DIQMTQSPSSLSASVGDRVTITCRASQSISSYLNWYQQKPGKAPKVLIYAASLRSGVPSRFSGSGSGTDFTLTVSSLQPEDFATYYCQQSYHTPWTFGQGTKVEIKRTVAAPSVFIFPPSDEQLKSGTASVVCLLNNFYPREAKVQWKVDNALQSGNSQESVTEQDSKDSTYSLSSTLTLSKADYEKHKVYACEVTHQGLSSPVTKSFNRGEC
heavy: QVQLQESGPGLLKPSETLSLTCTVSGGSVSLYYWSWIRQSPGKEPEWIGYIYSSGSTDYNPSLRSRVTISLDTSNNRFSLNLRSVTAADTAVYWCARSASIRGWFDPWGQGTLVTVSSGSASAPTLFPLVSCENSPSDTSSVAVGCLAQDFLPDSITFSWKYKNNSDISSTRGFPSVLRGGKYAATSQVLLPSKDVMQGTDEHVVCKVQHPNGNKEKNVPLPVIAELPPKVSVFVPPRDGFFGNPRKSKLICQATGFSPRQIQVSWLREGKQVGSGVTTDQVQAEAKESGPTTYKVTSTLTIKESDWLSQSMFTCRVDHRGLTFQQNASSMCVPDQDTAIRVFAIPPSFASIFLTKSTKLTCLVTDLTTYDSVTISWTRQNGEAVKTHTNISESHPNATFSAVGEASICEDDWNSGERFTCTVTHTDLPSPLKQTISRPKGVALHRPDVYLLPPAREQLNLRESATITCLVTGFSPADVFVQWMQRGQPLSPEKYVTSAPMPEPQAPGRYFAHSILTVSEEEWNTGETYTCVVAHEALPNRVTERTVDKSTGKPTLYNVSLVMSDTAGTCY
notes: Human monoclonal IgM from a Waldenstrom's macroglobulinemia patient; J chain not described; Used at 10 ug/ml; also called hIgM12; sHIgM12
[1]
  binding result: binds
[2]
  binding result: binds
